In this test the target is full length RhoA (Q63L) as it stands in the constitutively GTP-loaded DORA-RhoA biosensor (UniProt P61586). Kind of test: FRET or BRET; FRET inside the single-chain DORA-RhoA biosensor (CFP on RhoA, YFP on the PKN1 domain) in living HeLa cells; single cell emission spectra and frequency domain FLIM of the donor (75.1 MHz).
Chain of UniProt P61586 (P61586 whole entry Q63L, the tested form may be a part): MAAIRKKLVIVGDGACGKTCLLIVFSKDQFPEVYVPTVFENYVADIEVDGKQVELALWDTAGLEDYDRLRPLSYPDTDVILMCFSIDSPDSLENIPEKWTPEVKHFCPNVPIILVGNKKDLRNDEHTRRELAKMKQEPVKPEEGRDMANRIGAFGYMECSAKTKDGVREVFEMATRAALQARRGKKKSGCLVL

Take “Rho binding domain of PKN1 (cpPKN) as it stands in the DORA-RhoA biosensor (domain or fragment)”: the median donor fluorescence lifetime (FLIM) came out at 2.4 ns.
